A word on the Kd: it is a measure of binding affinity in units of concentration. What is called koff is the rate constant with which the complex falls apart. As usually defined, the kon is the second-order rate constant of association. A word on the EC50: it is the concentration at which the effect is half-maximal.

The source of these data is patent US20130324474A1 (Eli Lilly, published 2013).

The target of assay [1] is T1, Recombinant Human GFRα-1/GDNF Rα-1 Fc Chimera (human, UniProt P56159 25-429).
T1 construct: Purchased Fc chimera; It was captured on protein A in Biacore and coated on the plate in ELISA; also called GFRα1-Fc; recombinant human GFRα1-Fc chimera, carrier-free; not shown: Fc part of a purchased Fc chimera
T1 sequence (looked up): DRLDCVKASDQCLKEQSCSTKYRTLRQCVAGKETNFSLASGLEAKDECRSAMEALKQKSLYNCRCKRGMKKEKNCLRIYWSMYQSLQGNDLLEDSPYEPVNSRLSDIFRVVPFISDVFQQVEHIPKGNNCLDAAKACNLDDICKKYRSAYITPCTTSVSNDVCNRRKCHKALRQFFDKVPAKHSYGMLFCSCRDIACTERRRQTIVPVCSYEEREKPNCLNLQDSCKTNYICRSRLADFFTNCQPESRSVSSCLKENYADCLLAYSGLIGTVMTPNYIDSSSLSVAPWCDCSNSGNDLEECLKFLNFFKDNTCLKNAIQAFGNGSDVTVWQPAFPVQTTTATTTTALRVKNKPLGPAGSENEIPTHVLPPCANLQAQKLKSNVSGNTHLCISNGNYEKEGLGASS
Kind of assay: SPR (Biacore 2000), GFRα1-Fc captured on protein A, GDNFv as analyte, 1:1 Langmuir, 25 C. On the procedure:
(§1) A Biacore® 2000 instrument is used to measure the binding kinetics of GDNFv to human and rat GDNF family receptors (GFRα1 and GFRα2). Measurements are performed at 25° C. Samples are dissolved in HBS-EP buffer (150 mM sodium chloride, 3 mM EDTA, 0.005% (w/v) surfactant P-20, pH 7.4). Protein A, Staphylococcus aureus is immobilized on flow cells 1 to 4 of a CM4 sensor chip (GE Healthcare #BR-1005-39) at a level of ˜200 response units (RUs) using amine coupling chemistry to capture GFR Fc chimera (Recombinant Human GFRα-1/GDNF Rα-1 Fc Chimera; Recombinant Human GFRα-2/GDNF Rα-2 Fc Chimera; Recombinant Rat GFRα-1/GDNF Rα-1 Fc Chimera; Recombinant Mouse GFRα-2/GDNF Rα-2 Fc Chimera).
(§2) Binding is evaluated using multiple cycles. Each cycle consists of the following steps: 1) injection of about 10 μL of GFR at a concentration of ˜1.0 μg/mL and a flow rate of 10 μL/min., aiming at a capture of 120-150 RUs; 2) injection of 250 μL of GDNFv at a flow rate of 50 μL/min., in a final concentration rage between 10 nM and 0.04 nM followed by […]. for dissociation; and 3) regeneration using about 30 μL of 10 mM glycine hydrochloride, pH 1.5. Association and dissociation rates for each cycle are evaluated using a “1:1 (Langmuir) binding” model in the BIAevaluation software, version 4.1.
In general terms: Surface plasmon resonance follows binding to a sensor surface in real time, without labels.

A further assay concerns the target human c-Ret (human, UniProt P07949 29-1114, phosphorylation at Y1016 is the readout). Kind of assay: cell-based or functional assay.
For assay [2], the target named is T1, Recombinant Human GFRα-1/GDNF Rα-1 Fc …. Kind of assay: Biacore (SPR), GFRα-1; 4 C sample of the 4-week stability comparison.
Assay [3] has as its target T2, Recombinant Rat GFRα-1/GDNF Rα-1 Fc Chimera (rat, UniProt Q62997 25-445).
T2 construct: Purchased Fc chimera; not shown: Fc part of a purchased Fc chimera
T2 sequence (looked up): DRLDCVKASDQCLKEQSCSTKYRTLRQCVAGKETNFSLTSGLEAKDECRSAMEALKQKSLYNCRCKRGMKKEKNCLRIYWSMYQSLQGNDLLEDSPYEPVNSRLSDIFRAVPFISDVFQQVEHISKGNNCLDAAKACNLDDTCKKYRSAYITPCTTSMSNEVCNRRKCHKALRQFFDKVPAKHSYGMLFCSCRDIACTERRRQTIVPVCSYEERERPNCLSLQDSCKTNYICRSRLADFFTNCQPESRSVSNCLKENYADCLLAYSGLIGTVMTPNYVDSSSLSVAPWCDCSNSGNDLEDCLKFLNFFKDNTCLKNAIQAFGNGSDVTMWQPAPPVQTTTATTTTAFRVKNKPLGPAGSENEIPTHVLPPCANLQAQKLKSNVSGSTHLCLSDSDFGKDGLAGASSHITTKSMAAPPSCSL
Kind of assay: SPR (Biacore 2000), rat GFRα1-Fc captured on protein A, GDNFv as analyte, 1:1 Langmuir, 25 C. On the procedure: as §1, §2

Assay [4] has as its target T3, Recombinant Human GFRα-2/GDNF Rα-2 Fc Chimera (human, UniProt O00451 22-441).
T3 construct: Purchased Fc chimera; not shown: Fc part of a purchased Fc chimera
T3 sequence (looked up): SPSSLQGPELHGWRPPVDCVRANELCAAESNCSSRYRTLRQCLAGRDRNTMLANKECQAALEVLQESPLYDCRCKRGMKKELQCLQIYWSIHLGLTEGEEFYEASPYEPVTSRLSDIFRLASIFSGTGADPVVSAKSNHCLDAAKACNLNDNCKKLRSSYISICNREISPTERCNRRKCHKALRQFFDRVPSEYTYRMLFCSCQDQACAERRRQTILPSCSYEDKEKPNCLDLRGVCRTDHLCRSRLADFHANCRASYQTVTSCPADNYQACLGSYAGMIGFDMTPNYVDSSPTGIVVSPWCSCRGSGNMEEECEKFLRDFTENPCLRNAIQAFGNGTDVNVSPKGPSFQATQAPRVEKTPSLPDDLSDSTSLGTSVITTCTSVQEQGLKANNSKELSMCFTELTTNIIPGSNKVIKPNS
Kind of assay: SPR (Biacore 2000), human GFRα2-Fc captured on protein A, GDNFv as analyte, 1:1 Langmuir, 25 C. Here is the method:
as §1, §2

Assay [5] has as its target T1, Recombinant Human GFRα-1/GDNF Rα-1 Fc …. Briefly: ELISA, plate-bound human GFRα1-Fc; 4 C sample. Here is the method: GDNF wild type and variants are tested in an ELISA assay, in which binding of the GDNF proteins to the plate-bound receptor (GFRα1) is measured. A “no GDNF” condition and/or an “irrelevant protein” condition are used as negative controls.
(§3) Each well of a 96-well plate (Greiner 655081 Immunobind ELISA plates) is coated with 70 μl of human GFRα1 (recombinant human GFRα1-Fc chimera, carrier-free) at 1 μg/ml in carbonate buffer, pH 9.6. If an irrelevant receptor is coated, it is an irrelevant Fc chimera and is coated at the same concentration as GFRα1. The plates are sealed and incubated at 4° C. overnight. The wells are aspirated and washed twice with washing buffer (20 mM Tris (hydroxymethyl) aminomethane, pH 7.4, 0.15 M NaCl, 0.1% Tween-20), using an automatic plate washer. The plates are blocked with 200 μl blocking buffer per well (3% Carnation Instant milk in the above washing buffer) for at least 1 hour at room temperature. Plates are washed twice with washing buffer.
GDNF proteins are serially diluted into blocking buffer at an appropriate concentration range, typically beginning at 5 μg/ml and serially diluting 1:10. A no GDNF control is used, which consists of blocking buffer alone. 50 μl of each GDNF solution is added to the GFRα1 coated wells in triplicate. The plates are incubated for 1.5 hours at room temperature. The wells are then washed 3 times with washing buffer.
A general note: ELISA stands for enzyme-linked immunosorbent assay.

Assay [6] shares this target. Kind of assay: ELISA, plate-bound human GFRα1-Fc; lower end of the 95% confidence range, n = 8. On the procedure:
as §3, with “buffer. […]” for “buffer.”
(§4) A 50 μl aliquot of horseradish peroxidase-conjugated streptavidin (Jackson ImmunoResearch, catalog #016-030-084), diluted 1:1000 in blocking buffer, is added to each well and incubated for 20-30 minutes at room temperature. […] The absorbance of the wells is read at 490 nm on a Molecular Devices SpectraMax250 plate reader. The average absorbance for the triplicate wells for each condition are determined, and the resulting values are processed for EC₅₀ calculation with Graph Pad Prism software to provide a 95% confidence range.

The target is the same in assay [7]. Kind of assay: ELISA, plate-bound human GFRα1-Fc; upper end of the 95% confidence range, n = 8. Here is the method: as §3, with “buffer. […]” for “buffer.”
as §4

Assay [8] has as its target T3, Recombinant Human GFRα-2/GDNF Rα-2 Fc …. Kind of assay: SPR (Biacore 2000), human GFRα2-Fc captured on protein A, GDNF as analyte, 1:1 Langmuir, 25 C. Here is the method:
as §1, §2

Assay [9] has as its target T1, Recombinant Human GFRα-1/GDNF Rα-1 Fc …. Kind of assay: SPR (Biacore 2000), GFRα1-Fc captured on protein A, GDNF as analyte, 1:1 Langmuir, 25 C; in the presence of 400 mM NaCl.

Sequence of human c-Ret (P07949 29-1114): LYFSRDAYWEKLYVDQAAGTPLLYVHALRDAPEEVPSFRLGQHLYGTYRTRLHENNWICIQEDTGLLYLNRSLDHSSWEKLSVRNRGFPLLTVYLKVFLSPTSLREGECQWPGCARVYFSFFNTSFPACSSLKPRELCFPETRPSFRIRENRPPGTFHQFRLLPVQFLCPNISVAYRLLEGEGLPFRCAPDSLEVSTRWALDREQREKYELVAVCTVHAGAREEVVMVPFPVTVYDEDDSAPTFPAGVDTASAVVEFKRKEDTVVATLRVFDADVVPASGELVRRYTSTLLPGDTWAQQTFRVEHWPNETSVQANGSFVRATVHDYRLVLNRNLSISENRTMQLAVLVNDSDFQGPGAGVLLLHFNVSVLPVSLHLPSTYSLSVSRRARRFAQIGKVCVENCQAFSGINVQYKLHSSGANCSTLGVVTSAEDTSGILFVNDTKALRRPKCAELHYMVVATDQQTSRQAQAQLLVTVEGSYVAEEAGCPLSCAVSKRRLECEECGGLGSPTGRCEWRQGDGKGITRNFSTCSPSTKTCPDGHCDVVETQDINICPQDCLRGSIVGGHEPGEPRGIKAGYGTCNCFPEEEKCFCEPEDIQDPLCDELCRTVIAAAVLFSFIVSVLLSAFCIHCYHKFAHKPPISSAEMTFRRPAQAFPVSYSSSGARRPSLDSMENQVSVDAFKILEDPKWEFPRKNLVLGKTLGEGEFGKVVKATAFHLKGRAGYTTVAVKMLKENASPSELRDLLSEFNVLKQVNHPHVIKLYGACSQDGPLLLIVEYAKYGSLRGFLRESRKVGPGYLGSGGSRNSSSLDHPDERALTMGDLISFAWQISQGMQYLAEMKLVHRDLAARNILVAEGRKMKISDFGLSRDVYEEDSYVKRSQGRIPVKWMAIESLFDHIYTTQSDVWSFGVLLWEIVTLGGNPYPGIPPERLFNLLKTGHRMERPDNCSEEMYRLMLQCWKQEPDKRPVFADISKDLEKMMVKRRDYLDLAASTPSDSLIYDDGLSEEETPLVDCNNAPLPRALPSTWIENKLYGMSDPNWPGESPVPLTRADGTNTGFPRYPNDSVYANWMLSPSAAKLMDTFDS

B1: E. coli-Δ31-N38Q-D95E-GDNF (SEQ ID NO: 9) (ligand)
chain: RGQRGKQRGCVLTAIHLNVTDLGLGYETKEELIFRYCSGSCDAAETTYDKILKNLSRNRRLVSEKVGQACCRPIAFDDDLSFLDDNLVYHILRKHSAKRCGCI
notes: also called GDNF variant 2; clone D9
With B1, in assay [1], the Kd is 47 pM, the dissociation rate constant (koff) was 0.00016 s⁻¹ and the kon stood at 3.9e+06 M⁻¹ s⁻¹.

B2: E. Coli-Δ31-N38Q-K84A-R88K-R90K-D95E-GDNF (SEQ ID NO: 12) (ligand)
chain: RGQRGKQRGCVLTAIHLNVTDLGLGYETKEELIFRYCSGSCDAAETTYDKILANLSKNKRLVSEKVGQACCRPIAFDDDLSFLDDNLVYHILRKHSAKRCGCI
notes: also called Δ31-N38Q-KAKKE; GDNF variant 3
For the molecule B2, in assay [1], the Kd amounted to 35 pM, the koff worked out at 0.00016 s⁻¹ and the kon was 5e+06 M⁻¹ s⁻¹.

B3: E. Coli-Δ31-GDNF (SEQ ID NO: 8) (ligand)
chain: RGQRGKNRGCVLTAIHLNVTDLGLGYETKEELIFRYCSGSCDAAETTYDKILKNLSRNRRLVSDKVGQACCRPIAFDDDLSFLDDNLVYHILRKHSAKRCGCI
notes: The NdeI start codon encodes a Met before R32; also called Delta-31 GDNF; Variant 1
For the molecule B3, in assay [1], the Kd stood at 44 pM, the koff is 0.00017 s⁻¹ and the kon turned out to be 4.2e+06 M⁻¹ s⁻¹.

B4: CHO Δ31-N38Q-K84A-R88K-R90K-D95E-K125E-R130E GDNF (SEQ ID NO: 15) (ligand)
chain: RGQRGKQRGCVLTAIHLNVTDLGLGYETKEELIFRYCSGSCDAAETTYDKILANLSKNKRLVSEKVGQACCRPIAFDDDLSFLDDNLVYHILREHSAKECGCI
Consider B4, for which the “c-Ret phosphorylation at Y1016, EC50” value with human c-Ret was 0.008 to 0.015 µg/mL.

B5: CHO-Δ31-N38Q-K84A-R88K-R90K-D95E-GDNF (SEQ ID NO: 12) (ligand)
chain: RGQRGKQRGCVLTAIHLNVTDLGLGYETKEELIFRYCSGSCDAAETTYDKILANLSKNKRLVSEKVGQACCRPIAFDDDLSFLDDNLVYHILRKHSAKRCGCI
modifications: N-glycosylated at N49 (numbering of mature GDNF)
notes: Expressed in CHO cells; also called Δ31-N38Q-KAKKE; GDNF variant 3
On to B5, for which the “c-Ret phosphorylation at Y1016, EC50” value with human c-Ret lay within 0.008 to 0.015 µg/mL. The Kd worked out at 29 pM in assay [2], 29 pM in assay [1], 21 pM in assay [3] and 44 pM in [4]. For the same molecule, the results for the koff in assay [1], in [3] and in assay [4] were 0.00014 s⁻¹, 0.00021 s⁻¹ and 0.00042 s⁻¹, respectively. For the same molecule, the kon turned out to be 6.2e+06 M⁻¹ s⁻¹ in assay [1], 9.9e+06 M⁻¹ s⁻¹ in assay [3] and 9.6e+06 M⁻¹ s⁻¹ in [4].

B6: E. Coli-WT-GDNF (SEQ ID NO: 3) (ligand)
chain: MSPDKQMAVLPRRERNRQAAAANPENSRGKGRRGQRGKNRGCVLTAIHLNVTDLGLGYETKEELIFRYCSGSCDAAETTYDKILKNLSRNRRLVSDKVGQACCRPIAFDDDLSFLDDNLVYHILRKHSAKRCGCI
notes: Expressed in E. coli, not glycosylated; also called WT E. coli GDNF; WT-E. coli GDNF
Turning to B6, in the assay with human c-Ret, the “c-Ret phosphorylation at Y1016, EC50” value fell in the range of 0.008 to 0.015 µg/mL. Moreover, the EC50 in [5] was 400 pM; in [6] it was 300 to 400 pM; in [7], 300 to 400 pM. Further, the figures for the Kd in assay [2], in assay [8] and in [9] were 64 pM, 100 pM and 64 pM, respectively. In addition, the figures for the koff in assay [8] and in [9] were 0.00026 s⁻¹ and 0.00035 s⁻¹, respectively. For the same molecule, the on-rate (kon) turned out to be 2.4e+06 M⁻¹ s⁻¹ in assay [8] and 6e+06 M⁻¹ s⁻¹ in [9].
